Assay: soluble on expression in E. coli; label from the status in PepcDB or PDB records

| Sequence | soluble on expression in E. coli |
| --- | --- |
| PQFSLWKRPVVTAYIEGQPVEVLLDTGADDSIVAGIELGNNYSPKIVGGIGGFINTLEYKNVEIEVLNKKVRATIMTGDTPINIFGRNILTALGMSLNL | soluble |
| PRLEFEKPVIELQTKIAELKKFTQDSDMDLSAEIERLEDRLAKLQDDIYKNLKPWDRVQIARLADRPTTLDYIEHLFTDFFECHGDRAYGDDEAIVGGIAKFHGLPVTVIGHQRGKDTKENLVRNFGMPHPEGYRKALRLMKQADKFNR | not soluble |
| PSTLELLKDVHLGLPVPCHDPARLALLSGHYLYYHYGCDGLDDRGWGCGYRTLQTLCSWPGGQSSGVPGLPALQGALEAMGDKPPGFRGSRNWIGCVEASLCLEHFGGPQGRLCHLPRGVGLRGEEERLYSHFTTGGGPVMVGGDADAQSKALLGICEGPGSEVYVLILDPHYWGTPKNRCELQAAGWVGWQKVKSVFDSNSFYNLCFTRLEHHHHHH | soluble |
| PTKLETFPLDVLVNTAAEDLPRGVDPSRKENHLSDEDFKAVFGMTRSAFANLPLWKQQNLKKEKGLF | soluble |
| PTPKTELVQKFRVQYLGMLPVDRPVGMDTLNSAIENLMTSSSKEDWPSVNMNVADATVTVISEKNEEEVLVECRVRFLSFMGVGKDVHTFAFIMDTGNQRFECHVFWCEPNAANVSEAVQAACSGPSSGIEGRGSSGSSGSSGSSGDAAVTPEERHLSKMQQNGYENPTYKFFEQMQN | soluble |
| PYARFQSAMFDKDTLIVSYDAERGEPRGARKKTVNKEEAGLGDCINCAMCVQVCPVGIDIRNGLQYQCIGCAACIDACDEIMDKMGYPRGL | not soluble |
| QAAELEITVTNATKGIYFTPLIVAAHDSDLHMFKVGESATAELEAMAEGGDISGLSTVIGNAGGAVVENPAGGILNPGAATTFTLDSGDHG | not soluble |
| QAKQTMQTLSTLNELGSKVEEVRNFFNFELPYRVKHVDQVSLKLQLVYAVRLQLESEVSDANGPDVTQLLYSTDRFLESARAFIGSDGELVSLAEQLHTSRGAENNSQQIENMYYRLGALVLESIFSDSNTNTDTYRELDLLFIESDSLSTGERSAFQRRLAQTSSVLAANAQGSYLANQLLKPDFPNQLVSMKATLEQK | not soluble |
| QDSLPDTKASGPAHSKEVPALTAVETGATNPLAPSDTVQTRHVVQRRSRSESTIESFFARGACVAIIEVDNEQPTTRAQKLFAMWRITYKDTVQLRRKLEFFTYSRFDMEFTFVVTANFTNANNGHALNQVYQIMYIPPGAPTPKSWDDYTWQTSSNPSIFYTYGAAPARISVPYVGLANAYSHFYDGFAKVPLKTDANDQIGDSLYSAMTVDDFGVLAVRVVNDHNPTKVTSKVRIYMKPKHVRVWCPRPPRAVPYYGPGVDYRNNLDPLSEKGLTTY | soluble |
| QGQFFREIENLKEYFNASSPDVAKGGPLFSEILKNWKDESDKKIIQSQIVSFYFKLFENLKDNQVIQRSMDIIKQDMFQKFLNGSSEKLEDFKKLIQIPVDDLQIQRKAINELIKVMNDLS | soluble |
| QILSPNYKARADSNAFYQKPVYPSRGVIYDRNGELLVYNEPAYDLVAVTKEVGEFDTLALCQTLNVEPEYVRKRFQDIRDRRINPGYSPYVPQLLLAQLNPREAGRFQEQLFKFPGFSIRPRAIRQYKYHGAAHVLGYLSEANMRDLERDSSLIAGDYVGRSGIERQYEKTLRGEKGIEVLLRDARGRIKGHYSDGKYDSPAIPGRDLTLSIDSKLQTLGEQLMQGKRGAIVMIEPETGEVLCLVSSPSYDPSLLAGKDRGKNHLEMEHDRNKPLYARAIQATYPPGSTFKPAQGAIFLQEGVIRPTDAFSCYHGFPPLNNRPACHSHGSP | not soluble |
| QLPSYRFNPNNHQSEQTLCVVCMCDFESRQLLRVLPCNHEFHAKCVDKWLKANRTCPICRAD | soluble |
| QNFLNDQFVIDSIVSAINPQKGQAMVEIGPGLAALTEPVGERLDQLTVIELDRDLAARLQTHPFLGPKLTIYQQDAMTFNFGELAEKMGQPLRVFGNLPYNISTPLMFHLFSYTDAIADMHFMLQKEVVNRLVAGPNSKAYGRLSVMAQYYCNVIPVLEVPPSAFTPPPKVDSAVVRLVPHATMPHPVKDVRVLSRITTEAFNQRRKTIRNSLGNLFSVEVLTGMGIDPAMRAENISVAQYCQMANYLAENA | soluble |
| QQRFLNIATDGRLSPKQKSNFLALEAEACIPYMPISEALREAMSDGVICDMFEGHAPFKPRYVLPDYAKFLSQGSEYLELSPAEDFDDALN | not soluble |
| QQRQRRKRKELTNLIRRFRNGAESLPDAVVVFRAEGNIVWCNRLAQHLLGFHWPEDSGQPISNLIRTPDFIKYLNKKDFSEPLEMRSPLNVERMLELRIVPYTEGEHLMVVRDVS | soluble |
| QTSIPTIFVGGDYARAFSTDGFVHRLTAAHLMTKGLVVHVSHAGHVTVQQFGPLKNNPTIQVIFADNHHAKRQARQFATVMQGLAKRYHVTRYNAVGHSSGGNIIFDYLTAQVPQRAQINKFVTIGSTYPGLTTQQLNRLPRSLPILNIAGHVWHTSGDGGVNLQAVLKFSHQLLAAGWSPKTQIIHGSPLTASHSMLHINPQVDLLIIQFLYGN | not soluble |
| QVQLQESGGGLVQPGGSLRLSCAASGFAFSGYAMSWVRQAPGKGLEWVSGINRDGSTSYTAPVKGRFTISRDNAKNILYLQMNSLRPEDTAVYYCAKWLGGRDWYDRGQGTQVTVS | soluble |
| QVQLVQSGAEVKKPGSSVKVSCKASGYTFSSNVISWVRQAPGQGLEWMGGVIPIVDIANYAQRFKGRVTITADESTSTTYMELSSLRSEDTAVYYCASTLGLVLDAMDYWGQGTLVTVSSASTKGPSVFPLAPCSRSTSESTAALGCLVKDYFPEPVTVSWNSGALTSGVHTFPAVLQSSGLYSLSSVVTVPSSSLGTKTYTCNVDHKPSNTKVDKRVESKYGPP | soluble |
| QYCWQHRFPTGYFSICDRYMNGTCPEGNSCKFAHGNAELHEWEERRDALKMKLNKA | soluble |
| RAKQQAAKSERRVRELTEATNDILWEFTADLSEVLVINSAYEDIWGRSVAKLRENPHDFLNGIHPEDRELMKDTMQSLMDGESADVECRVNATEEYQRWVWIQGEPITNDAGETVRVAGFARDIT | soluble |
| RDDSTLVIGHNTGALAHRINDPQHAGSIVTAIKQETDLDVTIECVVGTDPKAAGFSEPENKKVWNPEPKPEPKPEPKPEPKPEPEPAPASDNVWGAPAPLGGGQPATPPPPPVERFSPAKATAPQPPAAPQPVQEAPKPRWQQAAERGMRKMEERAKRPSFSDGVPLPPEPEEPDVPPDLYGYPADEGIPEPQTPQATSNYVVDHDEEEEMVREAAQGVGNRDHRDAMTVAVDILSEELGARQL | not soluble |
| RDPEGLLGDKEDLGITCALIPTDVKGVEIGNRHFPLNVPFQNGPTRGKDIFVPIDFIIGGEKMAGQGWRMLVECLSVGRGITLPSNSTGGIKSAAMATGAYSRIRRQFKQPIGHMEGVEEPLARLGGNAYVMDAASNLTVAGIDLGEKPSVISAIVKYHCTHRGQQSIIDAMDIVGGKGICLGPSNFLARGYQGSPIAVTVEGANILTRSMIIFGQGAIRCHPYVLEEMNAAYSEASDAVEKFDKALAGHVSFTMSNLVRSIWFGLSDGLGSSAPTKDATKRYYQQLNR | not soluble |
| REFAPPPNLPDPKFESKAALLAARGPEELLCFTERLEDLVCFWEEAASAGVGPGQYSFSYQLEDEPWKLCRLHQAPTARGAVRFWCSLPTADTSSFVPLELRVTAASGAPRYHRVIHINEVVLLDAPVGLVARLADESGHVVLRWLPPPETPMTSHIRYEVDVSAGQGAGSVQRVEILEGRTECVLSNLRGRTRYTFAVRARMAEPSFGGFWSEWSEPVSLLTPSDLD | soluble |
| REGVFRAERQRKAGELIISREPLTGLDDAARSQALLALVRRKGLELLPWTPELRQWQARVALLRSLDIDKSATSEWPDLSDAQLLATLENWLMPYLGKVT | not soluble |
| RELLMMTPSKELCQVVGNDVLEIEKVSDHQLKLAGITKVGQELRVNIDLHVDDDMIELDTLEQTRKQLTTRLSKHRFKLQLNLNVANC | not soluble |
